Our source for the response values is article PMC7395093.

Numbering of substitutions follows the chain as printed.

The labels stand for the following.
B1: N-terminally V5 epitope-tagged WT (full-length) [mouse] / C-terminal GFP-tagged Atg16L1 WT (full-length) [mouse] (parent)
chain 1: MTSEMESSLEVSFSSSCAVSGASGCLPPARSRIFKIIVIGDSNVGKTCLTYRFCAGRFPDRTEATIGVDFRERAVDIDGERIKIQLWDTAGQERFRKSMVQHYYRNVHAVVFVYDMTNMASFHSLPAWIEECKQHLLANDIPRILVGNKCDLRSAIQVPTDLAQKFADTHSMPLFETSAKNPNDNDHVEAIFMTLAHKLKSHKPLMLSQLPDNRISLKPETKPAVTCWC
chain 2: MSSGLRAADFPRWKRHIAEELRRRDRLQRQAFEEIILQYTKLLEKSDLHSVLTQKLQAEKHDMPNRHEISPGHDGAWNDSQLQEMAQLRIKHQEELTELHKKRGELAQLVIDLNNQMQQKDKEIQMNEAKISEYLQTISDLETNCLDLRTKLQDLEVANQTLKDEYDALQITFTALEEKLRKTTEENQELVTRWMAEKAQEANRLNAENEKDSRRRQARLQKELAEAAKEPLPVEQDDDIEVIVDETSDHTEETSPVRAVSRAATKRLSQPAGGLLDSITNIFGRRSVSSIPVPQDIMDTHPASGKDVRVPTTASYVFDAHDGEVNAVQFSPGSRLLATGGMDRRVKLWEAFGDKCEFKGSLSGSNAGITSIEFDSAGAYLLAASNDFASRIWTVDDYRLRHTLTGHSGKVLSAKFLLDNARIVSGSHDRTLKLWDLRSKVCIKTVFAGSSCNDIVCTEQCVMSGHFDKKIRFWDIRSESVVREMELLGKITALDLNPERTELLSCSRDDLLKVIDLRTNAVKQTFSAPGFKCGSDWTRVVFSPDGSYVAAGSAEGSLYVWSVLTGKVEKVLSKQHSSSINAVAWAPSGLHVVSVDKGSRAVLWAQP
B2: N-terminally V5 epitope-tagged (full-length) [mouse] / C-terminal GFP-tagged Atg16L1 WT (full-length) [mouse] (parent)
chain 1: B1 chain 1 with Q92L
chain 2: B1 chain 2

The variants in the first assay derive from B1. Put plainly: GFP co-immunoprecipitation, western blot band quantification. As to conditions: with C-terminal GFP-tagged Atg16L1 WT (full-length) [mouse]; Overexpression was done in HEK293 cells; read off a plot. For orientation: A western blot detects proteins with antibodies after separation by electrophoresis.
For the variant chain 1 T47N, the response is 0.6 a.u.

In the next assay the parent is B2. The description is as above. The note with it: with C-terminal GFP-tagged Atg16L1 WT (full-length) [mouse]; Overexpression was done in HEK293 cells; read off a plot.
For chain 1 F70E, the response came out at 0.32 a.u.

For the variant chain 1 F70A, the response is 0.04 a.u.

Staying with this assay, now noted: with N-terminally V5 epitope-tagged Rab33B Q92L (full-length) [mouse]; Overexpression was done in HEK293 cells; read off a plot.
In the case of chain 2 N206K, the response stood at 0.12 a.u.

Consider chain 2 K198A, for which the response was 0.13 a.u.

As for chain 2 A202W, the response came to 0.06 a.u.
